Article PMC10686828, “DMSOP-cleaving enzymes are diverse and widely distributed in marine microorganisms” (Nature Microbiology, 2023)

Assays:
[1] = substrate: C[S+](C)(=O)CCC(=O)[O-]; assay: HPLC of acrylate, initial rates, non-linear fit; type: biochemical, Alcaligenes faecalis; conditions: pH 8, 30 °C
[2] = substrate: C[S+](C)(=O)CCC(=O)[O-]; assay: HPLC of DMSO, initial rates, non-linear fit; type: biochemical, Psychrobacter sp.; conditions: pH 8, 30 °C, CoA, ATP, Mg2+ present
[3] = substrate: C[S+](C)(=O)CCC(=O)[O-]; assay: HPLC of acrylate, initial rates, non-linear fit; type: biochemical, Candidatus Pelagibacter communis; conditions: pH 8, 30 °C
[4] = substrate: C[S+](C)(=O)CCC(=O)[O-]; assay: HPLC of acrylate, initial rates, non-linear fit; type: biochemical, Emiliania huxleyi; conditions: pH 8, 30 °C
[5] = substrate: C[S+](C)(=O)CCC(=O)[O-]; assay: HPLC of acrylate, initial rates, non-linear fit; type: biochemical, Ruegeria pomeroyi; conditions: pH 8, 30 °C
Description: HPLC of acrylate, initial rates, non-linear fit on DddW | Only the catalytic efficiency of DddW for DMSOP was similar to that for DMSP

B1: A. faecalis DddY (Alcaligenes faecalis) (protein)
chain: AQFQCQDDVKPAAISAEEQKLVDQFWAESLVYLEQYLKALETPTGQCKDSAQATIQTYHSETGKAQTRCIMKYRDMELLAKHLKAVLAEPDKAKACFDPQKNYKEFTLYTPSSQVQQLSATSTWINRPLLTDYYTKMGGAIGAAGLELNENFLAITSRTDTTAHWTRDVSIKGLPTLWSSVGWVPLYAENPAAGSDRFRGGYLYAELMGPWGNLRIKEINGEKVGAEIGMTVQLFNTSYPFHYHHPQETYMTLTKPQCVDQNKYMVMHWDSDQFTQTRSDKGWTVEIDGSKERWKKWFANQDVNKEWLTYFERNAIHAFHALEGCNQTIQNSGLVAVWARSTSQDNEQFTQLCRPASGPDGVKRMRPGQKTVCDVRDWKP
notes: pET-22b, C-terminal His tag, E. coli BL21(DE3); Ni-NTA and gel filtration
Km [1]: 41.0 mM
kcat [1]: 26.5 s⁻¹

B2: DddX (Psychrobacter sp.) (protein)
chain: LTGQIIEYTIKIQTIYTGNFKHKNGFLKMIERGIAMKKENLKILAKKAQTIAIVGANYRFATRVLLENLDKMDFTGTIYLVNPRYENIDGVRCYQSLLEIEDTIDVVVGLVNPQLMIQVASNASKINAKVLVIPGGGYGESGVEGQNIQNAILERAADSGMRIVGPNCMGYLNMHAQFTPYIGTLHRPLRPIKKGPVSIISQSGSVNDAFIASKLGISKIYSTGNEADVQMHDYLNLLAEDPETSVIILYIEAIRNHLSFLRALDLCSKNKKPVIAIKVGRTIKSAAVANAHSGALAGDYEIEKLFLEGHGVLFVEDIDQAVAVALLLSQPYLPTVNTVAALTVSGGQAGILLDLAEDYGVDFPDFSAVTNYEIASKLPELGGLSNPLDIWGKSSKDFSEVSNICLSSIVKDADIGIITVAIDAPIGQGDHEFDFTSIPAKDLASLRGNSDKPFLYFSHIQTEFDPRVESILDEAGIAVIQGSRNALVACRALFKYKEFLEKNNHTPIYSVEDLSIQKGLKLLHDNEGRKLLDESGFVSPREQVVTSLQEGVDYAESIGYPVVLKAQGLAHKTDVGGVALNIKSAAKLKKAWGKMEHLNSPYYLIQEMVTDGFETILAYRTDMNYGPVVIFGLGGIYTELFNEVVLAVPPITHKKAEQMVKSIPMLWKSIEGYRGNPALDLEALTASIVQMGETAMEKYEEIVEFEINPLSVRVKGVVALDVLASVKTTAAKEADAEEADVKKCSELV
notes: as for B1
Km [2]: 1 ± 0.2 mM

B3: DddK (Candidatus Pelagibacter ubique HTCC1062) (protein)
chain: MIFVKNLASVLSQEWSSTEKYPGVRWKFLIDADFDGSSGLSLGFAEIAPGGDLTLHYHSPAEIYVVTNGKGILNKSGKLETIKKGDVVYIAGNAEHALKNNGKETLEFYWIFPTDRFSEVEYFPAKQKSG
notes: pET-22b, C-terminal His tag, E. coli BL21(DE3); Ni-NTA and gel filtration; dimer in asymmetric unit; Mn2+
Km [3]: 24.1 ± 3.4 mM
kcat [3]: 14.8 ± 0.9 s⁻¹

B4: Alma1 (Emiliania huxleyi) (protein)
chain: MGNCTSHPHHEPQVHFDTVDGMATVKAFAGIRQVTMGVLRIDYEYQTNLGDILDPRSFDFRIISATAEGLTFAKAKAGDKLDATGKELLERAVRQLIDNGADFIVGDCGFLVYWQVMVRDYAQDYAQKKYGRKCPVMMSSLVLALPLLATIPSGGQIGILTASEKSLQAVQKKLPIVIEDHQKEDGGQRSRSVPAAEDPSGIMINFSDPRFKVVGLDEVKDFKHALDAQGADAVNDRRDIAVQIAAYCQKVQEKNPQIAAWLIECTEAGGFAWAIKVGTGLPVWDPITLGRFLSLGFTANVPNVALTLGQHGENPLDPSATTAGKGRCTGEEPGQIHALGAEFQAIREGTL
notes: as for B1
Km [4]: 8.8 ± 1.1 mM
kcat [4]: 0.2 ± 0.01 s⁻¹

B5: DddW (Ruegeria pomeroyi DSS-3) (protein)
chain: MTAMLDSFATDLTAATSLHQPGNLPHPPHAIDAENVPLSGGTDPTYGEVRWRTLINGTEAAPRDMVLGIAEFGPGHQLRPHRHTPPEFYLGLEGSGIVTIDGVPHEIRAGVALYIPGDAEHGTVAGPEGLRFAYGFASASFEAIEYRFTASA
notes: pET-22b, C-terminal His tag, E. coli BL21(DE3)
Km [5]: 11.2 ± 1.6 mM
kcat [5]: 26.7 ± 3.9 s⁻¹
